Numbering of substitutions follows the chain as printed.
B1: 7D1 (Fab, V domains shown)
VH: QVQLVQSGGGLVQPGGSLRLSCAASGFTFRSNAMGWVRQAPGKGLEWVSGISGSGGSTYYADSVKGRFTISRDNSKNTLYLQMNSLRAEDTAVYYCAKHTGGGVWDPIKHWGQGTLVTVSS
VL: EIVLTQSPLSLPVTPGEPASISCRSSQSLLHSNGYTYLDWYLQKPGQSPQLLIYSGSHRASGVPDRFSGSVSGTDFTLRISRVEAEDVGVYYCMQGLQSPFTFGPGTKVDIKR
notes: PH1 Fab variant; also called clone 7D1
B2: 7F9 (Fab, V domains shown)
VH: B1 VH with K109G, H110Y
VL: B1 VL
notes: PH1 Fab variant; also called clone 7F9
B3: 7F3 (Fab, V domains shown)
VH: B1 VH with K98I, H110Y
VL: B1 VL
notes: PH1 Fab variant; also called clone 7F3

target: T1, MUC1 (mucin-1) on MUC1-expressing cells (human, UniProt P15941 24-1255, underglycosylated / partially glycosylated tumor-associated glycoforms); assay: flow cytometry, purified Fab dilutions on cellular MUC1 (ETA cells); data not shown
T1 construct: whole, on cells; also called cellular MUC1; tumor-associated MUC1
T1 sequence (P15941 24-1255): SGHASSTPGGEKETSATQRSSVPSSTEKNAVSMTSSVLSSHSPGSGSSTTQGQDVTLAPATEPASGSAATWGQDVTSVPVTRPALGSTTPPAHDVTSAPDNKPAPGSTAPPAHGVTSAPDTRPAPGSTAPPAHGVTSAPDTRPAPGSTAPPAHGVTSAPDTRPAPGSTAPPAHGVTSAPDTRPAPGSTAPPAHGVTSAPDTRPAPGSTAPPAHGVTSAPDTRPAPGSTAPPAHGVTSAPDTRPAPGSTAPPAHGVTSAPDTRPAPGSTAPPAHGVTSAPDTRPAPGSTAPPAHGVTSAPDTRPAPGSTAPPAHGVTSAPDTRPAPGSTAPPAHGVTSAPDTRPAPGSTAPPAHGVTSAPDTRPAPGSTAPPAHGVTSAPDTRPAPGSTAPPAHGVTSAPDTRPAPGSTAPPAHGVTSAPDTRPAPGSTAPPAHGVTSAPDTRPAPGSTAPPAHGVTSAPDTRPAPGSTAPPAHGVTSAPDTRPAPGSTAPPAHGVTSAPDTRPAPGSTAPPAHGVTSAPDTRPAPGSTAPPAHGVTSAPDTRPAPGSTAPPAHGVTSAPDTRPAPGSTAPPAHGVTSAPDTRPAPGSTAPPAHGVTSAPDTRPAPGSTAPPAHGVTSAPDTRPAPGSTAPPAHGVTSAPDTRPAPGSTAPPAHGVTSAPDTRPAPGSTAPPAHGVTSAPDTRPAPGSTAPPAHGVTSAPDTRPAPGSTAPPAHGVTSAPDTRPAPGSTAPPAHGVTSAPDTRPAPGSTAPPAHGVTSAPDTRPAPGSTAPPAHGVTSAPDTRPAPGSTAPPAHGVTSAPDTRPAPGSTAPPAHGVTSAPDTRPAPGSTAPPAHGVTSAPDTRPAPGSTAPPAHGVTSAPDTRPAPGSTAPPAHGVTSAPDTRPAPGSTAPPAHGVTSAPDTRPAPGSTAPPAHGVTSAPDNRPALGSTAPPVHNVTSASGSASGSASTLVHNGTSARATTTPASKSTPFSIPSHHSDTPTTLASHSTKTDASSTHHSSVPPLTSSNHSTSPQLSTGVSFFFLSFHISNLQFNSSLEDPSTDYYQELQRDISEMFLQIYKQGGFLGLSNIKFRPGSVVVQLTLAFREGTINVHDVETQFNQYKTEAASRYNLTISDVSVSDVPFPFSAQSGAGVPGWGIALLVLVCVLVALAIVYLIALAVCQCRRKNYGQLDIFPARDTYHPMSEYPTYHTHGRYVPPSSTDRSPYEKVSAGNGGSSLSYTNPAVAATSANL
Procedure: Specific binding of the Fabs was measured by FACScalibur analysis (Becton Dickinson, Oxnard, Calif.) as described by Henderikx et al. (Cancer Res., 58: 4324-4332 (1998)). For affinity studies on cells with recombinant Fabs, the following flow cytometry experiment was carried out. Fab fragments were purified from the periplasmic fraction by IMAC and gel filtration as described in (Roovers et al., Br. J. Cancer, 78: 1407-1416 (1998)). Protein concentrations were measured with the bicinchoninic acid method (Sigma, St. Louis, Mo., USA). Two-fold serial dilutions of these Fabs were made and incubated, for each dilution point, with 2×10⁵/100 μl ETA cells (transfected 3T3 cells (Acres et al., J. Immunol., 14: 136-1443 (1993)). After trypsinisation, cells were washed one time in RPMI 10% FCS, 0.1% NaN₃ (incubation buffer). Then, cells were incubated with appropriate dilution for 1 hour at room temperature (RT), on a rotator. As negative controls, 2×10⁵ 3T3 mouse fibroblast cells were also incubated with the highest concentrations of antibodies. As a secondary negative control, ETA cells without primary antibody were used. Cells were spun down by centrifugation for 3 minutes at 611×g. Between incubations, cells were washed with incubation buffer. In a second incubation, anti-Myc antibody (6 μg/ml 9E10), directed against the Myc-tagged Fabs, was added for 30 minutes in incubation buffer at RT. After washing once, rabbit anti-mouse-FITC was used at RT for 30 minutes (Dako). Detection of bound antibodies was performed by means of flow cytometry on a FACSCalibur (Becton Dickinson, Oxnard), and results analyzed with the CELLQuest program (Becton Dickinson). Mean intensity was plotted against the concentration of the antibodies.
The relative ranking of the three clones from highest to lowest affinity (i.e., 7D1>7F3>7F9) appear to have stayed the same, but the positioning of both the wild type clone PH1 and best BIAcore mutant 5C8 appearef to be different from what was expected on the basis of the BIAcore affinity.

| Binder | binding result |
| --- | --- |
| B1 | binds |
| B2 | binds |
| B3 | binds |

From US20020146750A1 (published 2002)
